Laboratory results from patent publication US8383581B2, “Short-chain peptides as parathyroid hormone (PTH) receptor agonist” (Cadila Healthcare Limited, priority 2009, dated 2013).
Where no end group is shown, it is not given here. [ ]: non-standard residue; d: D form. Arg(NO2) = N=C(NCCC[C@H](N)C(=O)O)N[N+](=O)[O-]; αMePhe(2,6-F2) = C[C@](N)(Cc1c(F)cccc1F)C(=O)O; αMePhe(2-F) = C[C@](N)(Cc1ccccc1F)C(=O)O; hArg = N=C(N)NCCCC[C@H](N)C(=O)O; hCit = NC(=O)NCCCC[C@H](N)C(=O)O; αMeF = C[C@](N)(Cc1ccccc1)C(=O)O; Cit = NC(=O)NCCC[C@H](N)C(=O)O; Nle = CCCC[C@H](N)C(=O)O; Orn = NCCC[C@H](N)C(=O)O; Ac5c = NC1(C(=O)O)CCCC1; Ac3c = NC1(C(=O)O)CC1; Aib = CC(C)(N)C(=O)O

T1: rat PTH-1R (rat PTHR endogenously expressed on UMR-106 rat osteosarcoma cells) (rat, UniProt P25961 27-591)
T1 sequence (looked up): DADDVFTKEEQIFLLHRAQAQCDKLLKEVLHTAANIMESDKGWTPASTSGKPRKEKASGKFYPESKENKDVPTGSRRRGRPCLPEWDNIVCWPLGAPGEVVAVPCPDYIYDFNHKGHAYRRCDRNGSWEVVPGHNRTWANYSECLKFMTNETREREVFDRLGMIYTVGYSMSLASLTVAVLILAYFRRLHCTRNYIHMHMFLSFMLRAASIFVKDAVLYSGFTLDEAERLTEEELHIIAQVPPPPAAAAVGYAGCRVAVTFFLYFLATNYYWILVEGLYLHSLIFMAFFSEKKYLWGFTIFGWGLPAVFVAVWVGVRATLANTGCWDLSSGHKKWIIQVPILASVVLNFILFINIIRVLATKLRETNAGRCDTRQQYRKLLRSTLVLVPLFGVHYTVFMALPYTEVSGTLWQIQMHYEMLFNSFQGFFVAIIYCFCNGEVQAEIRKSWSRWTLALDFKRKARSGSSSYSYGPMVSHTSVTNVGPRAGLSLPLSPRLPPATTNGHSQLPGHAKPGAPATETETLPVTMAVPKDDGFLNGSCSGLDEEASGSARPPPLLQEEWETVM


Legend:
[1] = Stability of peptides in simulated intestinal fluid (pH 7.5); type: in vitro ADME; settings: pH 7.5
Procedure: (§1) b) Stability of Peptides in Human Plasma, Simulated Gastric Fluid, Intestinal Fluid and Liver Microsomes (Ex-Vivo): Different short-chain peptides (final concentration 2 μM) were incubated with either pooled human plasma (7.5 μL) or simulated gastric fluid (pH 1.5; composition HCl, NaCl and Pepsin) or simulated intestinal fluid (pH 7.5) or human liver microsomes, for 0, 2, 4, 6, 12 and 24 h (37° C.; 50 mM triethanolamine-HCl buffer; pH 7.8). Concentrations of human plasma/simulated gastric fluid/simulated intestinal fluid/human liver microsomes were selected in preliminary experiments to provide degradation of approximately 50% of PTH(1-34) within 1 h, therefore allowing time-dependent degradation to be viewed over 24 h. Reactions were terminated by the addition of TFA/H2O ([…], 10% (v/v)). The reaction products were then applied to a Vydac C18 analytical column (4.6×250-mm) and the major degradation fragment separated from intact short-chain peptides. The column was equilibrated with TFA/H20, at a flow rate of 1 mL/min. Using 0.1% (v/v) TFA in 70% acetonitrile/H2O, the concentration of acetonitrile in the eluting solvent was raised from 0% to 28% over 10 min and from 28% to 42% over 30 min. The absorbance was monitored at 206 nm using UV detector and peaks were collected manually prior to ESI-MS analysis. Area under the curve was measured for test peptides and their metabolites and percentage degradation were calculated at each time point over a period of 24 h. Stability study results of selected peptides, in human plasma, simulated gastric fluid, intestinal fluid and liver microsomes (in vitro) are listed in Table 4.

[2] = Stability of peptides in simulated gastric fluid (pH 1.5; HCl, NaCl and Pepsin); type: in vitro ADME; settings: pH 1.5
Procedure: as §1

[3] = Stability of peptides in human liver microsomes; type: in vitro ADME; settings: human, microsomes
Procedure: as §1

[4] = Stability of peptides in human plasma; type: in vitro ADME; settings: human, plasma
Procedure: as §1

[5] = molecular target: T1, rat PTH-1R (rat PTHR endogenously …); test: cell-based or functional assay

Molecule	cAMP released with respect to control, 1 nM peptide, UMR-106 cells [5]	cAMP released with respect to control, 10 nM peptide, UMR-106 cells [5]	cAMP released with respect to control, 100 nM peptide, UMR-106 cells [5]	other results
CCCCC(C)(NC(=O)[C@H](CC(C)C)NC(=O)[C@H](CCC(N)=O)NC(=O)[C@@H](NC(=O)[C@H](CCC(=O)O)NC(=O)C(C)(C)NC(=O)[C@@H](NC(=O)C1(NC(=O)[C@@H](N)C(C)C)CCCC1)C(C)C)[C@@H](C)CC)C(=O)N[C@@H](Cc1c[nH]cn1)C(=O)N[C@@H](CCC(N)=O)C(=O)N[C@@H](CCCCNC(=N)N)C(=O)N[C@@H](C)C(=O)N[C@@H](CCCCNC(=N)N)C(=O)NC(Cc1ccc(-c2ccc(OC)cc2CC)cc1)C(=O)NC(C)(CCCc1ccccc1)C(N)=O (single isomer, unassigned) [Seq. ID. 925]				half-life ([1]; simulated gi fluid): 30 min; % degradation of peptides in 24 h when incubated with simulated intestinal fluid ([1]; simulated intestinal fluid, 24 h, 2 μM): 100%; % degradation of peptides in 24 h when incubated with simulated gastric fluid ([2]; simulated gastric fluid, 24 h, 2 μM): 100%; half-life ([2]; simulated gi fluid): 30 min; half-life [3]: 30 min; % degradation of peptides in 24 h when incubated with liver microsomes ([3]; 24 h, 2 μM, pH 7.8): 100%; half-life (t1/2) in human plasma [4]: (9) h; metabolised at 24 h, 2 μM ([4]; pH 7.8): 78%
[Aib]V[Aib]EIQ[αMePhe(2,6-F2)][Nle]HQ[hCit]A[Aib][αMePhe(2-F)] [Seq. ID. 429]	39 percent of control	101 percent of control	120 percent of control	
[Aib]V[Aib]EIQ[αMePhe(2,6-F2)][Nle]HQ[Cit]A[Arg(NO2)][αMePhe(2-F)] [Seq. ID. 397]	38 percent of control	102 percent of control	117 percent of control	
[Ac5c]V[Ac5c]EIQ[αMePhe(2,6-F2)][Nle]HQ[hArg][Aib][Aib][αMePhe(2,6-F2)] [Seq. ID. 198]	32 percent of control	71 percent of control	99 percent of control	
[Aib]V[Aib]EIQ[αMePhe(2,6-F2)][Nle]HQ[hArg][Aib][αMePhe(2,6-F2)][αMePhe(2-F)] [Seq. ID. 212]	34 percent of control	88 percent of control	116 percent of control	
[Ac3c]V[Aib]EIQL[Nle]HQ[hArg][Aib]K[αMeF] [Seq. ID. 15]	28 percent of control	78 percent of control	99 percent of control	
[Aib]V[Aib]EIQ[αMePhe(2-F)][Nle]HQ[Orn][Aib][Arg(NO2)][αMePhe(2-F)] [Seq. ID. 330]	18 percent of control	51 percent of control	72 percent of control	
[Ac5c]V[Aib]EIQ[αMePhe(2-F)][Nle]HQ[hCit][Aib][αMePhe(2,6-F2)][αMePhe(2-F)] [Seq. ID. 444]	26 percent of control	67 percent of control	81 percent of control	

Now from value to molecule, other results behind:

cAMP released with respect to control, 1 nM peptide, UMR-106 cells [5]	cAMP released with respect to control, 10 nM peptide, UMR-106 cells [5]	cAMP released with respect to control, 100 nM peptide, UMR-106 cells [5]	Molecule	other results
38 percent of control	98 percent of control	116 percent of control	[Aib]V[Aib]EIQ[αMePhe(2,6-F2)][Nle]HQ[Orn]A[αMePhe(2,6-F2)][αMePhe(2,6-F2)] [Seq. ID. 325]	
29 percent of control	52 percent of control	69 percent of control	[Aib]V[Aib]EIQ[αMePhe(2-F)][Nle]HQ[hCit][Aib][Cit][αMePhe(2,6-F2)] [Seq. ID. 418]	
46 percent of control	108 percent of control	116 percent of control	[Aib]V[Aib]EIQ[αMePhe(2,6-F2)][Nle]HQ[hArg]A[Arg(NO2)][αMePhe(2,6-F2)] [Seq. ID. 271]	
56 percent of control	101 percent of control	126 percent of control	[Aib]V[Aib]EIQ[αMePhe(2,6-F2)][Nle]HQ[hCit]A[Arg(NO2)][αMePhe(2-F)] [Seq. ID. 461]	
38 percent of control	79 percent of control	119 percent of control	[Ac5c]V[Aib]EIQ[αMePhe(2,6-F2)][Nle]HQ[Cit]A[Cit][αMePhe(2-F)] [Seq. ID. 351]	
26 percent of control	68 percent of control	86 percent of control	[Ac5c]V[Aib]EIQ[αMePhe(2,6-F2)][Nle]HQ[Orn]A[Aib][αMePhe(2,6-F2)] [Seq. ID. 311]	
39 percent of control	104 percent of control	120 percent of control	[Ac5c]V[Aib]EIQ[αMePhe(2-F)][Nle]HQ[Orn][Aib][Cit][αMePhe(2,6-F2)] [Seq. ID. 292]	
21 percent of control	51 percent of control	69 percent of control	[Aib]V[Aib]EIQ[αMePhe(2-F)][Nle]HQ[Cit][Aib][Cit][αMePhe(2-F)] [Seq. ID. 346]	
28 percent of control	71 percent of control	87 percent of control	[Aib]V[Ac5c]EIQ[αMePhe(2,6-F2)][Nle]HQ[hArg][Aib][Arg(NO2)][αMePhe(2-F)] [Seq. ID. 256]	
38 percent of control	91 percent of control	120 percent of control	[Ac5c]V[Ac5c]EIQ[αMePhe(2,6-F2)][Nle]HQ[hArg][Aib][αMePhe(2,6-F2)][αMePhe(2,6-F2)] [Seq. ID. 238]	
32 percent of control	71 percent of control	99 percent of control	[Ac5c]V[Aib]EIQ[αMePhe(2-F)][Nle]HQ[Cit][Aib][Aib][αMePhe(2,6-F2)] [Seq. ID. 372]	
